T1: human APRIL (human, UniProt O75888 105-250, limits assumed)
T1 construct: Bought recombinant protein; also called hAPRIL
T1 sequence (looked up): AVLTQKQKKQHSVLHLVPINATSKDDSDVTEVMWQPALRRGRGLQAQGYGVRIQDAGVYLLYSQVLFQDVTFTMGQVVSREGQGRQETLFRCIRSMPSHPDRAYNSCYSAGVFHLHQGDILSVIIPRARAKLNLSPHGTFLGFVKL

T2: mouse APRIL (mouse, UniProt Q9D777 96-241, limits assumed)
T2 construct: Bought recombinant protein; also called mAPRIL
T2 sequence (looked up): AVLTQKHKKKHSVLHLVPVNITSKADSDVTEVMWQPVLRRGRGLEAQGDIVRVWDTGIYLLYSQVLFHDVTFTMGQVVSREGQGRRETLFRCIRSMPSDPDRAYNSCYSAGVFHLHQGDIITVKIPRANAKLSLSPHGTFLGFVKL


Key:
soluble cynomolgus BLyS = target: T3, soluble cynomolgus BLyS (cynomolgus, UniProt A0A2K5V2X4 134-285); test: ELISA, soluble cyBLyS
T3 construct: Soluble form; also called cyBLyS; Soluble cyBLyS

soluble human BLyS [1] = target: T4, soluble human BLyS (human, UniProt Q9Y275 134-285); test: ELISA, soluble hBLyS
T4 construct: also called hBLyS; human BAFF (BLyS)

soluble mouse BLyS [2] = target: T5, soluble mouse BLyS (mouse, UniProt Q9WU72 127-309); test: ELISA, soluble mBLyS
T5 construct: europium-labelled in DELFIA; also called mBLyS; mouse BAFF (BLyS)

soluble human BLyS [3] = target: T4, soluble human BLyS; test: Biacore
soluble mouse BLyS [4] = target: T5, soluble mouse BLyS; test: Biacore
soluble human BLyS [5] = target: T4, soluble human BLyS; test: blocking of biotinylated soluble hBLyS binding to immobilized mBR3
soluble mouse BLyS [6] = target: T5, soluble mouse BLyS; test: DELFIA competition, Eu-mBLyS binding to coated BCMA
Experimental: (§1) After 5× washing with 200 ul/well of DELFIA 1× wash solution (PE, Cat #4010-0010), plates were blocked with 3% BSA purified from trace heavy metal amounts (PE, Cat #CR84-100) for 3 hours with shaking at room temperature. Plates were washed again five times at 200 μl/well with DELFIA wash solution.
(§2) The final 3 wells across the plate served as controls (2 wells contained 2,000 pM mAbs for negative and background controls while the third contained no mAbs for positive control). […] After 18-24 hrs at 4° C., plates were read on PE EnVision plate reader with laser excitation, LANCE/DELFIA top mirror, and emission filter Eu-615 with a delay of 400 μs. Data were fit to four parameter (variable slope) inhibition dose response curve using GraphPad PRISM 5.0 software.

soluble human BLyS [7] = target: T4, soluble human BLyS; test: Biacore, antibody captured on chip, BLyS injected, 1:1 model, 25 C
Experimental: (§3) Recombinant protein NG (Thermo Scientific, Cat #21186) was diluted to 100 μg/ml in 10 mM sodium acetate pH 4.0 and then immobilized on the surface of a pre-activated Series S CM5 Biacore chip (GE, Cat #BR-1005-34) using amine coupling. […] After the dissociation period, the chip was regenerated back to baseline by injecting 10 mM glycine pH 1.5 for 120 seconds over the four flow cells. […] The entire data set was fit to a 1:1 interaction model to give kₒₙ, koff, and Kd values. The assay was run at 25° C. in 1× biacore running buffer HBS-EP+ (GE, Cat #BR-1006-69).

soluble mouse BLyS [8] = target: T5, soluble mouse BLyS; test: as above
Experimental: as §3

human APRIL = target: T1, human APRIL; test: Biacore, antibody captured, APRIL injected
Experimental: (§4) Recombinant protein NG (Thermo Scientific, Cat #21186) was diluted to 100 μg/ml in 10 mM Sodium Acetate pH 4.0 and then immobilized on the surface of a pre-activated Series S CM4 Biacore chip (GE, Cat #BR-1005-34) using amine coupling. […] Binding response was measured as the difference in total RU increase during 300 second APRIL injection of each individual flow cell and the reference flow cell (e.g., Flow cell 2-1).

mouse APRIL = target: T2, mouse APRIL; test: Biacore, antibody captured, APRIL injected
Experimental: as §4

soluble human BLyS [9] = target: T4, soluble human BLyS; test: DELFIA competition, Eu-hBLyS binding to coated BCMA
Experimental: as §1, §2

soluble mouse BLyS [10] = target: T5, soluble mouse BLyS; test: DELFIA competition, Eu-mBLyS binding to coated BR3
Experimental: as §1, §2

soluble human BLyS [11] = target: T4, soluble human BLyS; test: Biacore T100, binder captured by anti-human Fc, BLyS injected, 1:1 model
Experimental: (§5) A Series S CM5 Chip (GE Healthcare) was amine coupled with an anti-human Fc capturing antibody (GE Healthcare Human Fc Kit) to >10,000 RUs. Sample antibodies were diluted in 1×HBS-EP+ running buffer to 0.15 ug/mL and injected for 45 seconds at 10 uL/min. […] Biacore Evaluation software was used to fit the data to a 1:1 Binding Model.

soluble mouse BLyS [12] = target: T5, soluble mouse BLyS; test: as above
Experimental: as §5

soluble human BLyS [13] = target: T4, soluble human BLyS; test: DELFIA competition, Eu-hBLyS binding to coated BR3
Experimental: as §1, §2

soluble mouse BLyS [14] = target: T5, soluble mouse BLyS; test: DELFIA competition, Eu-mBLyS binding to coated TACI
Experimental: as §1, §2

soluble human BLyS [15] = target: T4, soluble human BLyS; test: DELFIA competition, Eu-hBLyS binding to coated TACI
Experimental: as §1, §2

IC50 (soluble cynomolgus BLyS) | IC50 (soluble human BLyS [1]) | IC50 (soluble mouse BLyS [2]) | Kd (soluble human BLyS [3]) | Kd (soluble mouse BLyS [4]) | IC50 (soluble human BLyS [5]) | IC50 (soluble mouse BLyS [6]) | Kd (soluble human BLyS [7]) | koff (soluble human BLyS [7]) | kon (soluble human BLyS [7]) | Kd (soluble mouse BLyS [8]) | koff (soluble mouse BLyS [8]) | kon (soluble mouse BLyS [8]) | binding result (human APRIL) | binding result (mouse APRIL) | IC50 (soluble human BLyS [9]) | IC50 (soluble mouse BLyS [10]) | IC50 (soluble human BLyS [13]) | IC50 (soluble mouse BLyS [14]) | IC50 (soluble human BLyS [15]) | Binder | also measured
0.32 nM | 16 nM | 0.05 nM | 4.26 nM | 0.0224 nM | 2.97 nM | – | – | – | – | – | – | – | – | – | – | – | – | – | – | 8A12 IgG expressed in HEK293 cells (antibody, V domains shown, IgG from HEK293-FreeStyle cells) VH: QVQLVQSGGGLVQPGGSLRLSCAASGFTFSSYAMSWVRQAPGKGLEWVSAISGSGGSTYYADSVKGRFTISRDNSKNTLYLQMNSLRAEDTAVYYCAREGQGYDILTGYYTRGYYFDYWGQGTLVTVSS VL: QSALTQPASVSGSPGQSITISCTGTSSDVGGYNYVSWYQQLPGKAPKLMIYEVSKRPSGVPDRFSGSKSGNTASLTISGLQAEDEADYYCSSYAGSSSWVFGGGTKLTVLG | –
– | – | – | – | – | – | > 2 nM | 0.421 nM | 5.5e-05 s⁻¹ | 130000 M⁻¹ s⁻¹ | 0.234 nM | 7.9e-05 s⁻¹ | 330000 M⁻¹ s⁻¹ | no binding (tested: 50 nM) | no binding (tested: 50 nM) | 0.017 nM | > 2 nM | 0.0873 nM | 0.445 nM | 0.74 pM | 6C10 IgG1 F243A/V264A double mutein expressed in Pichia pastoris (antibody, V domains shown, IgG1 F243A/V264A (EU) double mutein, alpha-2,6-sialylated, from glycoengineered Pichia pastoris; also called 6C10-DM; 6C10-DM (Pichia)) VH: EVQLVQSGAEVKKPGASVKVSCKASGYTFTSYGISWVRQAPGQGLEWMGWISAYNGNTNYAQKLQGRVTMTTDTSTSTAYMELRSLRSDDTAVYYCARTYYDILTGYYYYYGMDVWGQGTTVTVSS VL: EIVLTQSPGTLSLSPGERAMLSCRASQSVGNYLAWYQQKPGQAPRLLIYDASNRATGIPARFSGSGSGTDFTLTINSLEPEDFAVYYCQQRSNWPLTFGGGTKVEIKR | Kd (soluble human BLyS [11]): 0.068 nM; koff (soluble human BLyS [11]): 2.5e-05 s⁻¹; kon (soluble human BLyS [11]): 368000 M⁻¹ s⁻¹; Kd (soluble mouse BLyS [12]): 0.232 nM; koff (soluble mouse BLyS [12]): 0.000224 s⁻¹; kon (soluble mouse BLyS [12]): 967000 M⁻¹ s⁻¹
0.1 nM | 0.12 nM | 0.05 nM | 0.51 nM | 0.0216 nM | 0.33 nM | 0.098 nM | 0.434 nM | 5e-05 s⁻¹ | 120000 M⁻¹ s⁻¹ | 0.334 nM | 6.7e-05 s⁻¹ | 200000 M⁻¹ s⁻¹ | no binding (tested: 50 nM) | no binding (tested: 50 nM) | 0.0106 nM | 0.784 nM | 0.121 nM | 0.679 nM | 0.67 pM | 6C10 IgG expressed in HEK293 cells (antibody, V domains shown, IgG from HEK293-FreeStyle cells; also called 6C10 (293)) VH: EVQLVQSGAEVKKPGASVKVSCKASGYTFTSYGISWVRQAPGQGLEWMGWISAYNGNTNYAQKLQGRVTMTTDTSTSTAYMELRSLRSDDTAVYYCARTYYDILTGYYYYYGMDVWGQGTTVTVSS VL: EIVLTQSPGTLSLSPGERAMLSCRASQSVGNYLAWYQQKPGQAPRLLIYDASNRATGIPARFSGSGSGTDFTLTINSLEPEDFAVYYCQQRSNWPLTFGGGTKVEIKR | –

— US20170101466A1 (published 2017)
